Patent publication US20180155451A1 (published 2018)

T1: FcγRIIb extracellular domain with C-terminal His tag (human, UniProt P31994 43-217)
T1 construct: extracellular domain; Expressed in FreeStyle293 cells; analyte in the Biacore assay; also called FcgRIIb; 2b; not shown: His tag at the C terminus
T1 sequence (looked up): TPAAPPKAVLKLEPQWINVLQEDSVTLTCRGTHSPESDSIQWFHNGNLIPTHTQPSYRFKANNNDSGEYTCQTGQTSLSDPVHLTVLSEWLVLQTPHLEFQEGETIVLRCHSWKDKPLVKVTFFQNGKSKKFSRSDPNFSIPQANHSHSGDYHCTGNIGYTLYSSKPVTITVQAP


Tests used:
[1] = biological target: T1, FcγRIIb extracellular domain with …; assay: SPR (Biacore), antibody captured on antigen-peptide chip, FcγR as analyte; relative binding
[2] = biological target: T2, FcγRIa extracellular domain with C-terminal His tag (human, UniProt P12314 16-292); assay: as above
T2 construct: extracellular domain; Expressed in FreeStyle293 cells; analyte in the Biacore assay; also called FcgRI; 1a; not shown: His tag at the C terminus
T2 sequence (P12314 16-292): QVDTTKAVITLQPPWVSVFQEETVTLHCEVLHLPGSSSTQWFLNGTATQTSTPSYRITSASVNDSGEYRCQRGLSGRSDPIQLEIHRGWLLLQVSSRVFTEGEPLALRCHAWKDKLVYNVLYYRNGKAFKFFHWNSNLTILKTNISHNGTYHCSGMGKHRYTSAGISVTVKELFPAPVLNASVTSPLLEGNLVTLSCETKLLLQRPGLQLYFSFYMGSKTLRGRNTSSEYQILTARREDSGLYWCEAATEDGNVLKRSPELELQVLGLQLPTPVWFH

Row | Binder | He/Con_2b [1] | He/Con_1a [2]
1 | GpH7-A5/GpH7-B3 variant H268_14T/GpL16-k0 (He Ab) (antibody, human IgG1, kappa, Heterodimerized anti-glypican-3 IgG1; the mutation stands in the GpH7-B3 chain only) heavy 1: not shown heavy 2: not shown light: DIVMTQSPLSLPVTPGEPASISCQASESLVHSNRNTYLHWYLQKPGQSPQLLIYKVSNRFSGVPDRFSGSGSGTDFTLKISRVEAEDVGVYYCSQNTHVPPTFGQGTKVEIERTVAAPSVFIFPPSDEQLKSGTASVVCLLNNFYPREAKVQWKVDNALQSGNSQESVTEQDSKDSTYSLSSTLTLSKADYEKHKVYACEVTHQGLSSPVTKSFNRGEC | 86 % of GpH7-A5/GpH7-B3/GpL16-k0 (=100) | 112 % of GpH7-A5/GpH7-B3/GpL16-k0 (=100)
2 | GpH7-A5/GpH7-B3 variant S298_20W/GpL16-k0 (He Ab) (antibody, human IgG1, kappa, Heterodimerized anti-glypican-3 IgG1; the mutation stands in the GpH7-B3 chain only) heavy 1: not shown heavy 2: not shown light: DIVMTQSPLSLPVTPGEPASISCQASESLVHSNRNTYLHWYLQKPGQSPQLLIYKVSNRFSGVPDRFSGSGSGTDFTLKISRVEAEDVGVYYCSQNTHVPPTFGQGTKVEIERTVAAPSVFIFPPSDEQLKSGTASVVCLLNNFYPREAKVQWKVDNALQSGNSQESVTEQDSKDSTYSLSSTLTLSKADYEKHKVYACEVTHQGLSSPVTKSFNRGEC | 41.1 % of GpH7-A5/GpH7-B3/GpL16-k0 (=100) | 104 % of GpH7-A5/GpH7-B3/GpL16-k0 (=100)
3 | GpH7-A5/GpH7-B3 variant S298_19Q/GpL16-k0 (He Ab) (antibody, human IgG1, kappa, Heterodimerized anti-glypican-3 IgG1; the mutation stands in the GpH7-B3 chain only) heavy 1: not shown heavy 2: not shown light: DIVMTQSPLSLPVTPGEPASISCQASESLVHSNRNTYLHWYLQKPGQSPQLLIYKVSNRFSGVPDRFSGSGSGTDFTLKISRVEAEDVGVYYCSQNTHVPPTFGQGTKVEIERTVAAPSVFIFPPSDEQLKSGTASVVCLLNNFYPREAKVQWKVDNALQSGNSQESVTEQDSKDSTYSLSSTLTLSKADYEKHKVYACEVTHQGLSSPVTKSFNRGEC | 73.3 % of GpH7-A5/GpH7-B3/GpL16-k0 (=100) | 109 % of GpH7-A5/GpH7-B3/GpL16-k0 (=100)
4 | GpH7-A5/GpH7-B3 variant S324_03V/GpL16-k0 (He Ab) (antibody, human IgG1, kappa, Heterodimerized anti-glypican-3 IgG1; the mutation stands in the GpH7-B3 chain only) heavy 1: not shown heavy 2: not shown light: DIVMTQSPLSLPVTPGEPASISCQASESLVHSNRNTYLHWYLQKPGQSPQLLIYKVSNRFSGVPDRFSGSGSGTDFTLKISRVEAEDVGVYYCSQNTHVPPTFGQGTKVEIERTVAAPSVFIFPPSDEQLKSGTASVVCLLNNFYPREAKVQWKVDNALQSGNSQESVTEQDSKDSTYSLSSTLTLSKADYEKHKVYACEVTHQGLSSPVTKSFNRGEC | 97.8 % of GpH7-A5/GpH7-B3/GpL16-k0 (=100) | 104 % of GpH7-A5/GpH7-B3/GpL16-k0 (=100)
5 | GpH7-A5/GpH7-B3 variant K326_12R/GpL16-k0 (He Ab) (antibody, human IgG1, kappa, Heterodimerized anti-glypican-3 IgG1; the mutation stands in the GpH7-B3 chain only) heavy 1: not shown heavy 2: not shown light: DIVMTQSPLSLPVTPGEPASISCQASESLVHSNRNTYLHWYLQKPGQSPQLLIYKVSNRFSGVPDRFSGSGSGTDFTLKISRVEAEDVGVYYCSQNTHVPPTFGQGTKVEIERTVAAPSVFIFPPSDEQLKSGTASVVCLLNNFYPREAKVQWKVDNALQSGNSQESVTEQDSKDSTYSLSSTLTLSKADYEKHKVYACEVTHQGLSSPVTKSFNRGEC | 89.2 % of GpH7-A5/GpH7-B3/GpL16-k0 (=100) | 100 % of GpH7-A5/GpH7-B3/GpL16-k0 (=100)

The next lines start with the values.

Row | He/Con_2b [1] | He/Con_1a [2] | Binder
6 | 84.3 % of GpH7-A5/GpH7-B3/GpL16-k0 (=100) | 112 % of GpH7-A5/GpH7-B3/GpL16-k0 (=100) | GpH7-A5/GpH7-B3 variant Y300_06M/GpL16-k0 (He Ab) (antibody, human IgG1, kappa, Heterodimerized anti-glypican-3 IgG1; the mutation stands in the GpH7-B3 chain only) heavy 1: not shown heavy 2: not shown light: DIVMTQSPLSLPVTPGEPASISCQASESLVHSNRNTYLHWYLQKPGQSPQLLIYKVSNRFSGVPDRFSGSGSGTDFTLKISRVEAEDVGVYYCSQNTHVPPTFGQGTKVEIERTVAAPSVFIFPPSDEQLKSGTASVVCLLNNFYPREAKVQWKVDNALQSGNSQESVTEQDSKDSTYSLSSTLTLSKADYEKHKVYACEVTHQGLSSPVTKSFNRGEC
7 | 87 % of GpH7-A5/GpH7-B3/GpL16-k0 (=100) | 111 % of GpH7-A5/GpH7-B3/GpL16-k0 (=100) | GpH7-A5/GpH7-B3 variant Y300_16H/GpL16-k0 (He Ab) (antibody, human IgG1, kappa, Heterodimerized anti-glypican-3 IgG1; the mutation stands in the GpH7-B3 chain only) heavy 1: not shown heavy 2: not shown light: DIVMTQSPLSLPVTPGEPASISCQASESLVHSNRNTYLHWYLQKPGQSPQLLIYKVSNRFSGVPDRFSGSGSGTDFTLKISRVEAEDVGVYYCSQNTHVPPTFGQGTKVEIERTVAAPSVFIFPPSDEQLKSGTASVVCLLNNFYPREAKVQWKVDNALQSGNSQESVTEQDSKDSTYSLSSTLTLSKADYEKHKVYACEVTHQGLSSPVTKSFNRGEC
8 | 41.2 % of GpH7-A5/GpH7-B3/GpL16-k0 (=100) | 105 % of GpH7-A5/GpH7-B3/GpL16-k0 (=100) | GpH7-A5/GpH7-B3 variant Y300_12R/GpL16-k0 (He Ab) (antibody, human IgG1, kappa, Heterodimerized anti-glypican-3 IgG1; the mutation stands in the GpH7-B3 chain only) heavy 1: not shown heavy 2: not shown light: DIVMTQSPLSLPVTPGEPASISCQASESLVHSNRNTYLHWYLQKPGQSPQLLIYKVSNRFSGVPDRFSGSGSGTDFTLKISRVEAEDVGVYYCSQNTHVPPTFGQGTKVEIERTVAAPSVFIFPPSDEQLKSGTASVVCLLNNFYPREAKVQWKVDNALQSGNSQESVTEQDSKDSTYSLSSTLTLSKADYEKHKVYACEVTHQGLSSPVTKSFNRGEC
9 | 69.2 % of GpH7-A5/GpH7-B3/GpL16-k0 (=100) | 112 % of GpH7-A5/GpH7-B3/GpL16-k0 (=100) | GpH7-A5/GpH7-B3 variant Y300_02A/GpL16-k0 (He Ab) (antibody, human IgG1, kappa, Heterodimerized anti-glypican-3 IgG1; the mutation stands in the GpH7-B3 chain only) heavy 1: not shown heavy 2: not shown light: DIVMTQSPLSLPVTPGEPASISCQASESLVHSNRNTYLHWYLQKPGQSPQLLIYKVSNRFSGVPDRFSGSGSGTDFTLKISRVEAEDVGVYYCSQNTHVPPTFGQGTKVEIERTVAAPSVFIFPPSDEQLKSGTASVVCLLNNFYPREAKVQWKVDNALQSGNSQESVTEQDSKDSTYSLSSTLTLSKADYEKHKVYACEVTHQGLSSPVTKSFNRGEC
10 | 84.1 % of GpH7-A5/GpH7-B3/GpL16-k0 (=100) | 112 % of GpH7-A5/GpH7-B3/GpL16-k0 (=100) | GpH7-A5/GpH7-B3 variant Y300_20W/GpL16-k0 (He Ab) (antibody, human IgG1, kappa, Heterodimerized anti-glypican-3 IgG1; the mutation stands in the GpH7-B3 chain only) heavy 1: not shown heavy 2: not shown light: DIVMTQSPLSLPVTPGEPASISCQASESLVHSNRNTYLHWYLQKPGQSPQLLIYKVSNRFSGVPDRFSGSGSGTDFTLKISRVEAEDVGVYYCSQNTHVPPTFGQGTKVEIERTVAAPSVFIFPPSDEQLKSGTASVVCLLNNFYPREAKVQWKVDNALQSGNSQESVTEQDSKDSTYSLSSTLTLSKADYEKHKVYACEVTHQGLSSPVTKSFNRGEC
